Laboratory results taken from article PMC9026390.

Tests used:
[1] = target: VvGH17 C-terminal-truncated mutant ΔC466 (Vibrio vulnificus); assay: native gel or EMSA; blue native PAGE, 5–10% gradient gel, 4 °C, 150 V for 3.5 h; 50 mM tricine, 15 mM bis-Tris/HCl, pH 7; cathode buffer with 0.02% Coomassie blue G250; monomer to trimer
[2] = target: glycoside hydrolase family 17 β-1,3-glucanase of Vibrio vulnificus (VvGH17), wild type (Vibrio vulnificus); assay: as above

Substance | stoichiometry N [1] | stoichiometry N [2]
VvGH17 C-terminal-truncated mutant ΔC466 (domain or fragment) | 3 | 
glycoside hydrolase family 17 β-1,3-glucanase of Vibrio vulnificus (VvGH17), wild type (enzyme) |  | 3
